Values quoted from earlier work, collected in PMC10093836, “Stabilization of the Dimeric State of SARS-CoV-2 Main Protease by GC376 and Nirmatrelvir” (International Journal of Molecular Sciences, 2023).

Target: Mpro (SARS-CoV-2) (UniProt P0DTD1)

In the case of Mpro (from UniProt P0DTD1), the Kd is listed as 7 µM.
